# Measured values published in the nanobody polyreactivity screen of Harvey et al. (2022).
# Test: yeast display, Sf9 membrane polyspecificity reagent, FACS + sequencing; frameworks hold sequencing errors
# In short: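 A nanobody's polyreactivity label depends on the gate it was sorted from. Yeast display cells were stained with 10% biotinylated, detergent-solubilized Sf9 membrane reagent for 1 hour at 4 °C, enriched on streptavidin microbeads and sorted by FACS. The low and high (top ~1%) gates were set on anti-HA fluorescence for expression and streptavidin fluorescence for reagent binding.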
row,Sequence,polyreactivity (PSR sort gate)
1,QVQLVESGGGLVQAGGSLRLSCAASGSTFKYYAMGWYRQAPGKERELVASISRGGSTNYADSVKGRFTISRDNAKNTVYLQMNSLKPEDTAVYYCAKRRAGTAYDYWGQGTQVTVSS,high polyreactivity
2,QVQLVESGGGLVQAGGSLRLSCAASGSTFLDNAMGWYIQAPGKERELVAAITQSGSSTYYPDSVKGRFTISRDTAKNTVYLQMNSLKPEATAVYYCAADVPNISFDYWGQGTQVTVSS,low polyreactivity
3,QVQLVESGGGLVQAGGSLRLSCAASGSTFLDNAMGWYRQAPGKERELVAAISSDGSTYYANSVKGRFTISRDNAKNTVYIQMNSLKPEDTAVYYCAAEYRYYGFWYDYWGQGTQVTVSS,high polyreactivity
4,QVQLVESGGGLVQAGGSLRLSCAASGSTFLDYAMGWYRQAPGNERELVAAISPDDSSTYYADSVKARFTISRDKAKNTVSLHMTSLKPEDTAVYYFAADDRDWVNYDYWGQGTQVTVSS,low polyreactivity
5,QVQLVESGGGLVQAGGSLRLSCAASGSTFLDYDMGWYRQAPGKERELVATINSVGSTYYADSVKGRFTISRDNAKNTVYLQMKSLKPEDTAVYYCAASQEPGWYPDVWWEYDYWGQGTQVTVSS,low polyreactivity
6,QVQLVESGGGLVQAGGSLRLSCAASGSTFLGNAMGWYRQAPGKERELVAGITSGGTTNYADSVKGRFTISRDNAKNTVYLQMNSLKPEDTAVYYCNADVWIGQRFDPGYDFDYWGQGTQVTVSS,low polyreactivity
7,QVQLVESGGGLVQAGGSLRLSCAASGSTFLGYAMGWSRQAPGKERELVAAINLSTSGTYYADSVKGRFTISRDNAKNTVYLQMNSLKPEDTAVYYCAAAYSNINYYYQYYYWGQGTQVTVSS,low polyreactivity
8,QVQLVESGGGLVQAGGSLRLSCAASGSTFLHYAMGWYRQAPGKERELVAAISFSGVRTYYADSVKGRFTISRDNAKNTVYLQMNSLKPEDTAVYYCAADGHHADYDYWGQGTQVTVSS,low polyreactivity
9,QVQLVESGGGLVQAGGSLRLSCAASGSTFLHYAMGWYRQAPGKERELVATITSGDSTSYADSVKGRFTISRDNAKNTVYLQMNSLKPEDTAVYYCTANRVHRSASPYDYWGQGTQVTVSS,low polyreactivity
10,QVQLVESGGGLVQAGGSLRLSCAASGSTFLINAMGWYRQAPGKERELVAAISRDGSTNYADSVKGRFTISRDNAKNTVYLQMNSLKPEDTAVYYCAAVPGISVGRQPGYDYDYWGQGTQVTVSS,low polyreactivity
11,QVQLVESGGGLVQAGGSLRLSCAASGSTFLLNAMGWYRPAPGKERELVAAITWTGGSTYYADSVKGRFTISRDNAKNTVYLQMNILKPEDTAVYYCAAEHYEYWRELVTSEYDYWGKGTQVTVSS,low polyreactivity
12,QVQLVESGGGLVQAGGSLRLSCAASGSTFLNYAMGWYRQAPGKERELVAAISFSGGRTYYADSVKGRFTISRDNAKNTVFLQMNSLKPEDTAVYYCAARGSYAYYRGQGTQVTVSS,high polyreactivity
13,QVQLVESGGGLVQAGGSLRLSCAASGSTFLNYAMGWYRQAPGKERELVASISYSAGSTYYADSVKGRFTISRDNAKNTVYLQMNSLKPEDTAVYYCAARLARAGYWRRNYYYWGQGTQVTVSS,high polyreactivity
14,QVQLVESGGGLVQAGGSLRLSCAASGSTFLPNAMGWYRQAPGKERELVARISYSGGNTYYADSVKGRFTISRDNAKNTVYLQMNSLKPEDTAVYYCAAVGWYHDYYWGQGTQVTVSS,high polyreactivity
15,QVQLVESGGGLVQAGGSLRLSCAASGSTFLPNAMGWYRQPPGKERELVAAITNSGGNTYADSVKGRFTISRDNAKNTVYLQMNSLKPEDTAVYYCNARFSPTGWARGNDYWGQGTQVTVSS,low polyreactivity
16,QVQLVESGGGLVQAGGSLRLSCAASGSTFLPYALGWYRQAPGKERELVAAIDWNGGRTYYADSVKGRFTISRDNAKNTVYLQMNSLKPEDTAVYYCAKLGRAAQGNYYWGQGTQVTVSS,high polyreactivity
17,QVQLVESGGGLVQAGGSLRLSCAASGSTFLPYVMGWYRQATGKERELVAAISRSGGRTYYADSVKGRFTISRDKAKNTVYLQMNRLKPEDTAVYYCNAVQRFYADYQPFAYWGQGTQLTVSS,high polyreactivity
18,QVQLVESGGGLVQAGGSLRLSCAASGSTFLRNAMGWYREAPGKERELVAAISTRGGSTYYADSVKGRFTISRDNAKNTVNLQMNSLKPEDTADYYCAAVATRRYDYWGQGTQVTVSS,high polyreactivity
19,QVQLVESGGGLVQAGGSLRLSCAASGSTFLRNAMGWYRQAPGKERELVATISRTGGTTYYADSVKGRFTISRDNAKTTVYLQMNSLKPEDTAVYYCAAYSKYGQHYDYWGQGTQVTVSS,high polyreactivity
20,QVQLVESGGGLVQAGGSLRLSCAASGSTFLRNAMGWYRQAPGKQGSWVATISYDGDSTYYADSVTGRFTISRDNAKNTVYLQMNSLKPDDPAVYYCAASYSQTFWDKDDYWGQGTQVTVSS,low polyreactivity
21,QVQLVESGGGLVQAGGSLRLSCAASGSTFLRNVMGWYRQAPGKESELVAAISSRGGSTHYADSVKGRFTISRDNAKNSVYLQMNILKPEDTAVYYCNAERSAAQYVRAAYDYWGQGTQVTVSS,low polyreactivity
22,QVQLVESGGGLVQAGGSLRLSCAASGSTFLRYAMGWYRQAPGKERELVAAINLSGDRTYYADSVKGRFTISRDNAKNTDYVQMNSLKPEDTAVYYCAARWWGPSYDAYDYWVQGTQVTVSS,low polyreactivity

row,Sequence,polyreactivity (PSR sort gate)
1,QVQLVESGGGLVQAGGSLRLSCAASGSTFLRYAMGWYRQAPGKERELVAAITASGGSTYYADSVKGRFTISRDNAKNTVYLEMNSLKPEDTAVYYCAADGRYIGKNSHDLWIYGYYYWGQGTQVTVSS,low polyreactivity
2,QVQLVESGGGLVQAGGSLRLSCAASGSTFLSYAKGWYRQATGKEREVVAAISGRGGSTYYADSVKGRFTISRDNAKNTVYLKMNSLKPEDTAVYYCARVYRPSADTYNYWGQGTQVTVSS,high polyreactivity
3,QVQLVESGGGLVQAGGSLRLSCAASGSTFLSYAMGWYRQAPGKERELVATINRGGSTYYADSVKGRFTISRDNAKNTVYLQMNSLKPEDTAVYYCAKANKRGRYNYWGQGTQVTVSS,high polyreactivity
4,QVQLVESGGGLVQAGGSLRLSCAASGSTFLTNAMGWYRQAPGKERELVAAIRWRGGDTRYADSVKGRFTISRDNAKNTVYLQMNSLKPEDTAVYYCAAQYRKTQYQKKYDYWGQGTQVTVSS,high polyreactivity
5,QVQLVESGGGLVQAGGSLRLSCAASGSTFLTNTMGWYRQAPGKERELVAIISRSSGTTYYSDSVKGRFTISRDNAKNTVYLQMNSLKPEDTAVYYCAKRYRRASPYSKNVYWGQGTQVTVSS,high polyreactivity
6,QVQLVESGGGLVQAGGSLRLSCAASGSTFLTYDMGWYRQAPGKERELVAAISGGGSTNYADSVKGRFTISRDNAKNTFYLQMNSLKPVDTAVYYCAAKASGNFYYYWGQGTQVTVSS,high polyreactivity
7,QVQLVESGGGLVQAGGSLRLSCAASGSTFLVYAMGWYRQAPGKERELVAVITRGVRTFYADSVKGRFTFSRDNAKNTVYLQMNSLKPEDTAVYYCAKERYNANYDTSLYDYWGQGTQVTVSS,low polyreactivity
8,QVQLVESGGGLVQAGGSLRLSCAASGSTFLYYSMGWYRQAPGKETELVAAIDSGGSTYYADSVKWRFTISRDNAKNTVYLQMNSLKPEDTAVYYCNPDFADHWPPNGPGAHDYWGQGTQVTVSS,low polyreactivity
9,QVQLVESGGGLVQAGGSLRLSCAASGSTFNAYAMGWNRQAPGKERELVAVISSSGGRTYYADSVKGRFTISRDNAKNTVYLQMNSLKPEDTAVYYCNADVKYRYNHWGQGTQVTVSS,high polyreactivity
10,QVQLVESGGGLVQAGGSLRLSCAASGSTFNDYAMGWYRQAPGKERELVAGITWRGTSTYYADSVKGRFTISRDNAKNTVYLQMNSLKPEDTAVYYCAADVYYLLWLWMDYWGQGTQVTVSS,low polyreactivity
11,QVQLVESGGGLVQAGGSLRLSCAASGSTFNDYAMGWYRQAPGNERELVAGITWRGTSTYYADSVKGRFTISRDNAKNTVYLQMNSLKPEDTAVYYCNADHVYGGYQYDFDYWGQGTQVTVSS,low polyreactivity
12,QVQLVESGGGLVQAGGSLRLSCAASGSTFNDYVMGWYRKAPGKERELVAAISRSGGSTYYADSVKGRFTISRDNAKNTVYIQMNSLKPEDTAFYYCNSDVGYWWGYYGYDYWGQGTQVTVSS,high polyreactivity
13,QVQLVESGGGLVQAGGSLRLSCAASGSTFNGNVMGWYRQAPGKDRELVAGISKSGGTTYYADSVKGRFTISRDNAKNTVYLQMNSLKPEDTAVYYCDARGRVRYYPQYDYWGQGTQVTVSS,high polyreactivity
14,QVQLVESGGGLVQAGGSLRLSCAASGSTFNGYAMGWYRQAPGKERELVAAISKRGGSTYYADSVKGRFTISRDNAKNTVYLQMNSLKPEDTAVYYCAARNPTKYLMDYWGKGTQVTVSS,high polyreactivity
15,QVQLVESGGGLVQAGGSLRLSCAASGSTFNIYVMGSYREPPGKERELVAAITTSGRTYYADSVKGRFTISRDNAKNTVYLQMNSLKPEDNAVYYCAAATGTYGRGGYYWGQGTQVTVSS,high polyreactivity
16,QVQLVESGGGLVQAGGSLRLSCAASGSTFNLYAMGWYRPAPGKERELVAAISRGGSTYYADSVKGRFTISRDNAKNTVYLQMNSLKPEDTAVYYCAARSWYDRYPYYSWGQGTQVTVSS,high polyreactivity
17,QVQLVESGGGLVQAGGSLRLSCAASGSTFNLYAMGWYRQAHGKERELVADITWSGGSTYYADSVKWRFTISRDNAKKTFYLQMNSLKPEDTAVYYCAAYGLSWGGYDYWGQATQVTVSS,low polyreactivity
18,QVQLVESGGGLVQAGGSLRLSCAASGSTFNNYGMGWYTQAPGTERELVAAITKSGGITYYADSVKGRFTISRDNAKNTVYLQMNRLKREDTAVYYCAAAYTIYWFSYRVLYYYWGQGTQVTVSS,low polyreactivity
19,QVQLVESGGGLVQAGGSLRLSCAASGSTFNPYTMGWPRQAPGKERELVATITRIGGSTYYADSVKGRFTISRDNAKNTVDLQMNSLKPEDNAVYYCAADHYRSVRWRSDYTYRVNYWGQGTQVTVSS,high polyreactivity
20,QVQLVESGGGLVQAGGSLRLSCAASGSTFNRNAMGWYRQAPGKERELVAAISWRGDSTSYADSVKGRFTISRDNAKNTVYLQMNSLKPEDTAVYYCATAHDYAFYRYWYVPSEYNYWGQGSQVTVSS,low polyreactivity
21,QVQLVESGGGLVQAGGSLRLSCAASGSTFNRNGMGWYRQAPGKERELVAAISRSTTSTYYADSVKGRFTISRDNAKNTVYLQMNSLKPEDTAVYYCATPHRYRVDYWGQGTQVTVSS,high polyreactivity
